Measurements from the supplement of paper PMC9170038.

Tested on: MS2 coat protein
Test: apparent KD of MS2 coat protein; designed switch direction (-1 OFF switch, 1 ON switch): -1; higher = weaker reporter binding
In short: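 SNAP-549-labelled MS2 coat protein was titrated, doubling from 0.7 or 1.5 nM to 3 µM, over designed RNA switches transcribed on Illumina chips by stalled E. coli RNA polymerase. Runs were done without input, with 200 uM small-molecule ligand, or with an oligonucleotide input. Apparent KD is the per-design median over clusters of curve-fitted normalised fluorescence.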

[1] = Eterna round: R95, input ligand: microRNA oligo, concentration not stated
[2] = input ligand: microRNA oligo, concentration not stated
[3] = Eterna round: R95, input ligand: FMN 200 uM
[4] = Eterna round: R95, input ligand: none

Sequence	apparent KD of MS2 coat protein [1] [nM]	apparent KD of MS2 coat protein (input ligand: FMN 200 uM) [nM]	apparent KD of MS2 coat protein (input ligand: none) [nM]	apparent KD of MS2 coat protein [2] [nM]	apparent KD of MS2 coat protein [3] [nM]	apparent KD of MS2 coat protein [4] [nM]
GUGCAAUGAGGAUAUACGUUGGUGGGCAUCUGUGUGCUCCUACAUGAGGAUCACCCAUGUAGAAGGCAUGUCAC [LRO-Excl2-19] (puzzle: Exclusion 2)	11.7					
CGAUCACAUGAGGAUCACCCAUGUGAGGAUAUAAUAACGCGGCGUGAGCACGGGAAUUUUAGAAGGCACACGGU [Eternabot (Original) Solution 42] (Eterna round: R97, puzzle: Exclusion 1)		14.2	13			
UUAUAAAGUGUGAGGAUAUGCUGGUCCUUGGAUCAGCAGAAGGCACAUGAGGAUCACCCAUGUAAUAUAUUUUU [JL bmx4 3.08] (puzzle: Brourd's mod of Exclusion 4)	68.2					
UUUUUAUAUGAAGGAUAUACUUAACAUGAGGAUCACCCAUGUGGUGUUGUGAGUGAGUGAGUUUAGUAGAAGGUCAACGAUUUU [JMF's solution 58] (Eterna round: R96, puzzle: Exclusion NG 2)		810	421	322		
GUUUACAAGCUAAGAUCCUACAUGAGGAUCACCCAUGUGGUCCGGUGACGUGAGUCACCGGACUUAGCUCGUCUUGC [salish99_S_TOV1_R5_089] (Eterna round: R97, puzzle: Sensor, turn-off variant 1)		36	37.2			
CUUUUGUGAGGAUAUUAGUAGUUUAUAAUUGGUGUUAUUGCUGAGAAGGCACAUGAGGAUCACCCAUGUACAAC [JR_Ex4_Sub033] (Eterna round: R97, puzzle: Exclusion 4)		97.9	37			
CUCUCGCGAGGAUAUGAUUUAAGUAACAUGAGGAUCACCCAUGUUUUUCCGUUGUUAUGUUCAGAAGGCGCGUGAU [JR_E5_Sub022] (puzzle: Exclusion 5)	38.8					
CAGGAUAGAGGAUAUGCAUAGAUACAGAUUCAUGUAAUCCUACAUGAGGAUCACCCAUGUAGAAGGCUAUCCUG [Fiskers Ex 2 - 17] (puzzle: Exclusion 2)	14.7					
CCGCAAAUGGAGGAUAUCGUAUCGGAUACGAUACGAGAAGGCCAAACAUGAGGAUCACCCAUGUGUCCUAGCGG [Fiskers Ex 6 - 37] (puzzle: Exclusion 6)	14.2				30	18.6
UCUCGCAGGCAAGGAUAUCCUACAUUGUUCUGGCCCGGGCAUGCUACAUGAGGAUCACCCAUGUGGGAGAAGGUGCGCCACGGC [Design 32] (Eterna round: R96, puzzle: Exclusion NG 2)		47.9	35.4	36		
ACAUGAGGAUCACCCAUGUCAGGCGGGUCUACUCCGGCUGUUGAGGAUAUAGUUCGGUAUCCGCGCUAGAAGGUGAGGGCCGGC [Aenatbe mod 23] (Eterna round: R96, puzzle: Exclusion NG 3)		20.8	21.8	14.9		
ACAUGUUGUCCAUGAUAUUACAUGAGGAUCACCCAUGUUAUUGCGAUUUUGAUGUGUAAGUUUGUUGCUCGUCUUAU [JR_STOV1_Sub062] (Eterna round: R97, puzzle: Sensor, turn-off variant 1)		29.6	32.6			
GGUUUAGUAGAGGAUAUGUCACUGUCGCAGGAGACAGAAGGCUGCACAUGAGGAUCACCCAUGUCGGUAAUGAG [Eternabot (L1) Solution 89] (Eterna round: R97, puzzle: Exclusion 6)		21.8	16.3			
UGUUAGAUGGUAGGAUAUCCAUAUCGAGUGACCCUUUCAUAACAUGAGGAUCACCCAUGUCGGUGGGAGAAGGGCCGUAUGGUG [salish99_ExNG02_R04_031] (Eterna round: R96, puzzle: Exclusion NG 2)		18	22.7	15.8		
UGCGGUGAGGUAAGGAUAUUUGGGCAAUUACGCCCGGAGAAGGUACAUGAGGAUCACCCAUGUGCAGUAAGGCU [Eternabot (L2) Solution 18] (Eterna round: R97, puzzle: Brourd's mod of Exclusion 4)		122	26.9			
CUGUUUUUCGCAGGAUAUGCUCCUCCAUUAUUUGCAGAAGGGCGUUGAACAUGAGGAUCACCCAUGUAUGGAAAUGACUAUUGC [JR_ExcNG1_Sub068] (Eterna round: R96, puzzle: Exclusion NG 1)		22.1	18.2	14.9		
AAUAACAGAGGAUAUACUGUUUUAUGUAUUUAUUAUUUUGAACAUGAGGAUCACCCAUGUAGAAGGCUGAUUAA [JMF 48] (puzzle: Exclusion 2)	29.6					

Sequence	apparent KD of MS2 coat protein [1] [nM]	apparent KD of MS2 coat protein (input ligand: FMN 200 uM) [nM]	apparent KD of MS2 coat protein (input ligand: none) [nM]	apparent KD of MS2 coat protein [2] [nM]	apparent KD of MS2 coat protein [3] [nM]	apparent KD of MS2 coat protein [4] [nM]
UUUAGUUCAGGAUAUGAUGAAUUAAACAUGAGGAUCACCCAUGUAGAUCCUGAAUUAACAUCAGAAGGGAAUAUUU [JL-ex5-4.47 Brourd mod] (Eterna round: R97, puzzle: Exclusion 5)		15.1	13.7			
GGACCCAAAGGAUAUACUUGAGGAUCACCCAAGUAUGUCGCUUGGGCACGGUAAAGGAGUAGAAGGUUGGGAAA [Esri] (Eterna round: R97, puzzle: Exclusion 3)		17.6	14.4			
GCAAGGGAAGGAUAUACAUUACGACCGUCAUAGUACCUGCGACAUGAGGAUCACCCAUGUAGAAGGUCCAGCGG [EX2 C.13] (Eterna round: R97, puzzle: Exclusion 2)		17.4	13.3			
GCCUCGUCAGGAUAUCUCCACGUGAGCAAGGCUCACGGGCCAGAGAAGGGACUUGAGGAUCACCCAAGUAAAAC [Ritiatso] (Eterna round: R97, puzzle: Exclusion 4)		428	138			
AGAAGUAGUAACCGAUCCUACAUGAGGAUCACCCAUGUAGCUAGACGUGCACGCGACGCUCGUCAGACUACCAGAUG [salish99_TOv1_r3_029] (puzzle: Sensor v3, turn-off variant 1)	324				270	418
UAUGAAGUAGGAUAUACAUGAGGAUCACCCAUGUCCUUACUGAGACCGGGCACGGCUCGUAGAAGGGCUUUCGA [Eternabot (L2) Solution 50] (Eterna round: R97, puzzle: Exclusion 3)		36.7	40.7			
AUUAGCGUAGGAUAUUAGUACAUGUACAUGAGGAUCACCCAUGUGAGGUGAGUCUUAGAUUAAGAAGGGCGAAGAA [EX5 #34] (Eterna round: R97, puzzle: Exclusion 5)		309	704			
GCCGUAAAUGUGAGGAUAUACCUAUGGAAACAUAGGUAGAAGGCACAUGAGGAUCACCCAUGUUCUCAAUCGGC [Mat - Exclusion 4 - Eli Mod - D6] (Eterna round: R97, puzzle: Brourd's mod of Exclusion 4)		775	195			
UUAAUUAGCAGACUAAUACCUCACAUGAGGAUCACCCAUGUGCAGGAUAUCAGCUCGUGUAGAGCUGAGAAGGGCACUGUCUGC [ExNG3/12-A3] (Eterna round: R96, puzzle: Exclusion NG 3)		17	10.8	10.2		
UGAGCAACAGGAUAUAUAUGGCGACCGUGAGGUCGAAGGUUACAUGAGGAUCACCCAUGUAGAAGGGUUGUUCU [Mat - Exclusion 2 - JL Mod - D16] (Eterna round: R97, puzzle: Exclusion 2)		279	102			
AGCCUACAUGAGGAUCACCCAUGUCAGGAUAUCUCGCGACGUGUCGGGUUCACGUUGCAGAGAAGGGACUCGGG [Estibera] (puzzle: Exclusion 1)	46.4					
GGUUGGCGAGGAUAUACAUGAGGAUCACCCAUGUGAGAGAAUAAAGUGAGGAAGAAAAGUAGAAGGCGCUGACA [Mat - Exclusion 3 - Mod of Salish D8] (puzzle: Exclusion 3)	42.1				154	40.7
ACGAUGAUCGAAAAGUGUAAACUGACAUGAGGAUCACCCAUGUAGGAUAUGGCUACGAAAAGUAGUCAGAAGGGCAUGUCAUCA [Omei Exc(NG) 3 Av11] (Eterna round: R96, puzzle: Exclusion NG 3)		51.3	47.9	34.6		
GGACCGUGAGGAUAUAGAGGUCGCGUCAUAGGGCGUGGUUACUAGAAGGCACAUGAGGAUCACCCAUGUUCAUC [Eternabot (L1) Solution 7] (Eterna round: R97, puzzle: Exclusion 4)		50.4	19.7			
UUUCUCUGUGUGAGGAUAUACUUGUUUGGGUUUUUGUAGAAGGCACAUGAGGAUCACCCAUGUAUUUUGUCGUG [JR_BME4_Sub019] (puzzle: Brourd's mod of Exclusion 4)	31.5					
CUGAGCUGACGGAGAUCCAACAUGAGGAUCACCCAUGUCUCAAAAGCUUUUUGCUCGUCUUAUCCUCCUCAGUUCAC [Mat - Sensor, turn-off var - Eli Mod - D55] (Eterna round: R97, puzzle: Sensor, turn-off variant 1)		26.5	22.6			
CCCGUCGAUGUAGGAUAUGCCCGGGUCUCCCGGGCAGAAGGACAUGAGGAUCACCCAUGUUGAUGAGGAUCACCCAUCAAUGGG [Double but mutated MS2] (Eterna round: R96, puzzle: Exclusion NG 1)		16.9	20.7	15.8		
